Assay [1] concerns the target T1, HLA-A*02:01_… (HLA-PEPTIDE target G7), recombinant biotinylated complex (human, enzymatically biotinylated (BirA)). Briefly: BLI, pHLA on sensor, Fab titrated, 1:1 model. Background: In BLI a coated tip is dipped into the sample, and binding shifts an interference pattern.
In assay [2] the target is HLA-A*02:01_… (HLA-PEPTIDE target G8), recombinant complex (human, enzymatically biotinylated (BirA) for screening and functional assays). As to the kind of experiment: BLI, pHLA on sensor, Fab titrated, 1:1 model.
Experimental: (§1) Binding affinity was assessed by bio-layer interferometry (BLI) using an Octet Qke (ForteBio). Briefly, biotinylated pHLA complexes in kinetics buffer were loaded onto streptavidin sensors for 300 seconds, at concentrations which gave the optimal nm shift response (approximately 0.6 nm) for each Fab at the highest concentration used. The ligand-loaded tips were subsequently equilibrated in the kinetics buffer for 120 seconds. The ligand-loaded biosensors were then dipped for 200 seconds in the Fab solution titrated into 2-fold dilutions. […] The dissociation step in the kinetics buffer was measured for 200 seconds. Data were analyzed using the ForteBio data analysis software using a 1:1 binding model.
Assay [3] addresses T2, HLA-B*35:01_… (HLA-PEPTIDE target G5), recombinant biotinylated complex (human, enzymatically biotinylated (BirA)).
T2 construct: also called G5-pHLA
Briefly: scFv PPE ELISA.

The target in assay [4] is T1, HLA-A*02:01_… (HLA-PEPTIDE target G7), …. As to the kind of experiment: phage panning, scFv ELISA.
Experimental: Phage library screening was carried out according to the overall screening design described above. Three to four rounds of bead-based panning were performed to identify scFv binders to each peptide-HLA complex. For each round of panning, an aliquot of starting phage was set aside for input titering and the remaining phage was depleted three times against Dynabead M-280 streptavidin beads (Life Technologies) followed by a depletion against Streptavidin beads pre-bound with 100 μmoles of pooled negative peptide-HLA complexes. For the first round of panning, 100 μmoles of peptide-HLA complex bound to streptavidin beads was incubated with depleted phage for 2 hours at room temperature with rotation. Three five-minute washes with 0.5% BSA in 1×PBST (PBS+0.05% Tween-20) followed by three five-minute washes with 0.5% BSA in 1×PBS were utilized to remove any unbound phage to the peptide-HLA complex bound beads. To elute the bound phage from the washed beads, 1 ml 0.1M TEA was added and incubated for 10 minutes at room temperature with rotation. The eluted phage was collected from the beads and neutralized with 0.5 ml 1M Tris-HCl pH 7.5. The neutralized phage was then used to infect log growth TG-1 cells (OD₆₀₀=0.5) and after an hour of infection at 37° C., cells were plated onto 2YT media with 100 μg/ml carbenicillin and 2% glucose (2YTCG) agar plates for output titer and bacterial growth for subsequent panning rounds.
96-well and/or 384-well streptavidin coated plates (Pierce) were coated with 2 μg/ml peptide-HLA complex in HLA buffer and incubated overnight at 4° C. Plates were washed three times between each step with PBST (PBS+0.05%). The antigen coated plates were blocked with 3% BSA in PBS (blocking buffer) for 1 hour at room temperature. After washing, scFv PPEs were added to the plates and incubated at room temperature for 1 hour. Following washing, mouse anti-v5 antibody (Invitrogen) in blocking buffer was added to detect scFv and incubated at room temperature for 1 hour. After washing, HRP-goat anti-mouse antibody (Jackson ImmunoResearch) was added and incubated at room temperature for 1 hour.
The target in assay [5] is T3, HLA-A*01:01_… (HLA-PEPTIDE target G2), recombinant biotinylated complex (human, enzymatically biotinylated (BirA)).
T3 construct: also called G2-pHLA
Briefly: BLI (ForteBio Octet HTX), biotinylated G2-pHLA captured on streptavidin SAX biosensor, bispecific in solution, 1:1 Fit.
Text: The biosensors were then dipped in assay buffer for a baseline. […] The biosensors were finally dipped into wells containing assay buffer to measure the dissociation rate for another 50 seconds. Referencing was completed by having a biosensor with no immobilized ligand dipped into analyte. Kinetic data was processed with Octet™ software using a 1:1 kinetic model with errors within 10%, X² below 3, and R² above 0.9.

For assay [6], the target named is T3, HLA-A*01:01_… (HLA-PEPTIDE target G2), …. Briefly: BLI (ForteBio Octet HTX), biotinylated G2-pHLA captured on streptavidin SAX biosensor, bispecific in solution, 1:2 Fit.
For assay [7], the target named is HLA-A*01:01_… (HLA-PEPTIDE target G10), recombinant biotinylated complex (human, enzymatically biotinylated (BirA)). As to the kind of experiment: BLI, pHLA on sensor, Fab titrated, 1:1 model.
Experimental: as §1

Some results are limits rather than exact numbers.

B1: G7(2C02) Fab (Fab, V domains shown)
VH: QVQLVQSGAEVKKPGASMKVSCKASGYTFTTDGISWVRQAPGQGLEWMGRIYPHSGYTEYAKKFKGRVTMTRDTSTSTVYMELSSLRSEDTAVYYCARQDGGAFAFDIWGQGTMVTVSS
VL: DIQMTQSPSSLSASVGDRVTITCQASQDIFKYLNWYQQKPGKAPKLLIYAASTLQSGVPSRFSGSGSGTDFTLTISSLQPEDFATYYCQQSYSTPPTFGQGTRLEIK
notes: Fab
Take B1: in assay [1], the Kd (commonly the concentration at which binding is half-saturated) was found to be 531 nM; the koff (commonly the rate constant with which the complex falls apart) worked out at 0.0543 s⁻¹; the kon (as a rule, a measure of how fast the partners come together) amounted to 104000 M⁻¹ s⁻¹.

B2: G8(1C11) Fab (Fab, V domains shown)
VH: QVQLVQSGAEVKKPGASVKVSCKASGGTLSSYPINWVRQAPGQGLEWMGWISTYSGHADYAQKLQGRVTMTRDTSTSTVYMELSSLRSEDTAVYYCARSYDYGDYLNFDYWGQGTLVTVSS
VL: DIQMTQSPSSLSASVGDRVTITCQASQDISNYLNWYQQKPGKAPKLLIYAASSLQSGVPSRFSGSGSGTDFTLTISSLQPEDFATYYCQQSYSIPPTFGGGTKVDIK
notes: Fab; also called G8-P1C11
As for B2, in assay [2], the Kd stood at 178 nM, the koff was 0.0338 s⁻¹ and the kon came out at 190000 M⁻¹ s⁻¹.

B3: G7(2E09) Fab (Fab, V domains shown)
VH: QVQLVQSGAEVKKPGSSVKVSCKASRYTFTSYDINWVRQAPGQGLEWMGRIIPMLNIANYAPKFQGRVTITADESTSTAYMELSSLRSEDTAVYYCARALIFGVPLLPYGMDVWGQGTTVTVSS
VL: not shown
notes: Fab
Consider B3, for which, in assay [1], the Kd was 11.8 nM, the koff was 0.00212 s⁻¹ and the kon is 185000 M⁻¹ s⁻¹.

B4: G5(3G05) scFv (scFv, V domains shown)
VH: QVQLVQSGAEVKKPGASVKVSCKASGYTFTNYYMHWVRQAPGQGLEWMGIINPSGGSTSYAQKFQGRVTMTRDTSTSTVYMELSSLRSEDTAVYYCARSWFGGFNYHYYGMDVWGQGTTVTVSS
VL: DIQMTQSPSSLSASVGDRVTITCQASEDISNHLNWYQQKPGKAPKLLIYDALSLQSGVPSRFSGSGSGTDFTLTISSLQPEDFATYYCQQANSFPFTFGPGTKVDIK
Turning to B4, the “fold selective binding to target pHLA over minipool of negative control pHLAs” value (from here on “fold selective binding to target pHLA”) in assay [3] is at least 3 fold.

B5: G7(3A09) scFv (scFv, V domains shown)
VH: QVQLVQSGAEVKKPGSSVKVSCKASGDTFNTYALSWVRQAPGQGLEWMGWMNPNSGNAGYAQKFQGRVTITADESTSTAYMELSSLRSEDTAVYYCARLWFGELHYYYYYGMDVWGQGTMVTVSS
VL: not shown
In the case of B5, the binding result in assay [4] is reported as “binds”.

B6: 4-G2(1H11)-10AAL hOKT3a (bispecific antibody)
chain: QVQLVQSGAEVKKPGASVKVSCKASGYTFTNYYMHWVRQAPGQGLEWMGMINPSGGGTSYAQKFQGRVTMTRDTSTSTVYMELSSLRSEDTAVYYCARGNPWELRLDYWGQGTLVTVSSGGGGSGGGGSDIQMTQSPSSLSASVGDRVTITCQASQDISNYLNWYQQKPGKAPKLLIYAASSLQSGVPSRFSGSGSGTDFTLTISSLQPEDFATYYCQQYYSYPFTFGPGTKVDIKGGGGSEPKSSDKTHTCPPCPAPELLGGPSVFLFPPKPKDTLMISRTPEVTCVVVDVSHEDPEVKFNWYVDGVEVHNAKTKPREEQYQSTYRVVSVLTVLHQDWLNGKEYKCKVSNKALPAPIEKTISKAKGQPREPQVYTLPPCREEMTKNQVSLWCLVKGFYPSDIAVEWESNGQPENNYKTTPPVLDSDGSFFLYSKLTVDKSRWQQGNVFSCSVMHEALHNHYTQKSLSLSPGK
heavy: QVQLVQSGAEVKKPGASVKVSCKASGYTFTNYYMHWVRQAPGQGLEWMGMINPSGGGTSYAQKFQGRVTMTRDTSTSTVYMELSSLRSEDTAVYYCARGNPWELRLDYWGQGTLVTVSSGGGGSGGGGSDIQMTQSPSSLSASVGDRVTITCQASQDISNYLNWYQQKPGKAPKLLIYAASSLQSGVPSRFSGSGSGTDFTLTISSLQPEDFATYYCQQYYSYPFTFGPGTKVDIKGGGGSGGGGSQVQLVQSGAEVKKPGASVKVSCKASGYTFTRYTMHWVRQAPGQGLEWMGYINPSRGYTNYNQKFKDRVTLTTDKSSSTAYMELSSLRSEDTAVYYCARYYDDHYSLDYWGQGTLVTVSSASTKGPSVFPLAPSSKSTSGGTAALGCLVKDYFPEPVTVSWNSGALTSGVHTFPAVLQSSGLYSLSSVVTVPSSSLGTQTYICNVNHKPSNTKVDKRVEPKSCDKTHTCPPCPAPELLGGPSVFLFPPKPKDTLMISRTPEVTCVVVDVSHEDPEVKFNWYVDGVEVHNAKTKPREEQYQSTYRVVSVLTVLHQDWLNGKEYKCKVSNKALPAPIEKTISKAKGQPREPQVCTLPPSREEMTKNQVSLSCAVKGFYPSDIAVEWESNGQPENNYKTTPPVLDSDGSFFLVSKLTVDKSRWQQGNVFSCSVMHEALHNRFTQKSLSLSPGK
light: DIQMTQSPSSLSASVGDRVTITCSASSSVSYMNWYQQKPGKAPKRLIYDTSKLASGVPSRFSGSGSGTDFTLTISSLQPEDFATYYCQQWSSNPFTFGQGTKLEIKRTVAAPSVFIFPPSDEQLKSGTASVVCLLNNFYPREAKVQWKVDNALQSGNSQESVTEQDSKDSTYSLSSTLTLSKADYEKHKVYACEVTHQGLSSPVTKSFNRGEC
notes: format 4 diabody; also called G2(1H11)-hOKT3a Format 4 with shortened linkers; DAB
Turning to B6, in assay [5], the Kd was 6.35 nM, the koff amounted to 0.00608 s⁻¹ and the kon stood at 958000 M⁻¹ s⁻¹. In assay [6], the Kd is 301 nM, the koff was found to be 0.0746 s⁻¹ and the kon was determined as 248000 M⁻¹ s⁻¹.

B7: G5(2B10) scFv (scFv, V domains shown)
VH: QVQLVQSGAEVKKPGASVKVSCKASGGTFSSYAISWVRQAPGQGLEWMGWMNPDSGSTGYAQRFQGRVTMTRDTSTSTVYMELSSLRSEDTAVYYCARGHSSGWYYYYGMDVWGQGTTVTVSS
VL: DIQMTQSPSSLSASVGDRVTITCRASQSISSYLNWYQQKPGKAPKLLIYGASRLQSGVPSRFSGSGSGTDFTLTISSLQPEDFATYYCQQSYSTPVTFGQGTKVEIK
Consider B7, for which the “fold selective binding to target pHLA” value in assay [3] was at least 3 fold.

B8: G7(1A03) Fab (Fab, V domains shown)
VH: QVQLVQSGAEVKKPGASVKVSCKASGYTFTSQYMHWVRQAPGQGLEWMGWISPNNGDTNYAQKFQGRVTMTRDTSTSTVYMELSSLRSEDTAVYYCARELGYYYGMDVWGQGTTVTVSS
VL: DIQMTQSPSSLSASVGDRVTITCRASQSISTWLAWYQQKPGKAPKLLIYYASSLQSGVPSRFSGSGSGTDFTLTISSLQPEDFATYYCQQSYSFPYTFGQGTKVEIK
notes: Fab
As for B8, in assay [1], the Kd was found to be 532 nM, the koff worked out at 0.0994 s⁻¹ and the kon came to 197000 M⁻¹ s⁻¹.

B9: G10(1B07) Fab (Fab, V domains shown)
VH: QVQLVQSGAEVKKPGASVKVSCKASGYTFTSYYMHWVRQAPGQGLEWMGIIHPGGGTTSYAQKFQGRVTMTRDTSTSTVYMELSSLRSEDTAVYYCARDKVYGDGFDPWGQGTLVTVSS
VL: DIQMTQSPSSLSASVGDRVTITCRASQSISRWLAWYQQKPGKAPKLLIFDASRLQSGVPSRFSGSGSGTDFTLTISSLQPEDFATYYCQQAEAFPYTFGQGTKVEIK
notes: Fab
As for B9, in assay [7], the Kd was found to be 37.5 nM, the koff worked out at 0.00615 s⁻¹ and the kon turned out to be 165000 M⁻¹ s⁻¹.

B10: G7(1G10) scFv (scFv, V domains shown)
VH: EVQLLESGGGLVQPGGSLRLSCAASGFTFSSYAMHWVRQAPGKGLEWVSGISGSGGSTYYADSVKGRFTISRDNSKNTLYLQMNSLRAEDTAVYYCASDYGDYRGQGTLVTVSS
VL: DIQMTQSPSSLSASVGDRVTITCRASQDIRNDLGWYQQKPGKAPKLLIYAASSLQSGVPSRFSGSGSGTDFTLTISSLQPEDFATYYCQQANAFPPTFGQGTKVEIK
Consider B10, for which the binding result in assay [4] is reported as “binds”.

B11: G8(2E04) Fab (Fab, V domains shown)
VH: QVQLVQSGAEVKKPGSSVKVSCKASGGTFSSYGVSWVRQAPGQGLEWMGWISPYSGNTDYAQKFQGRVTITADESTSTAYMELSSLRSEDTAVYYCARGLYYMDVWGKGTTVTVSS
VL: DIQMTQSPSSLSASVGDRVTITCRASQSISSWLAWYQQKPGKAPKLLIYDASNLETGVPSRFSGSGSGTDFTLTISSLQPEDFATYYCQQSYSTPLTFGGGTKLEIK
notes: Fab
In the case of B11, in assay [2], the Kd was found to be 286 nM, the koff is 0.0789 s⁻¹ and the kon was found to be 545000 M⁻¹ s⁻¹.

B12: G8(2C10) Fab (Fab, V domains shown)
VH: QVQLVQSGAEVKKPGASVKVSCKASGYTFTSYYMHWVRQAPGQGLEWMGWINPYSGGTNYAQKFQGRVTMTRDTSTSTVYMELSSLRSEDTAVYYCAKGGIYYGSGSYPSWGQGTLVTVSS
VL: DIQMTQSPSSLSASVGDRVTITCRASQDVSTWLAWYQQKPGKAPKLLIYAASSLQSGVPSRFSGSGSGTDFTLTISSLQPEDFATYYCQQSHSTPQTFGQGTKVEIK
notes: Fab
As for B12, in assay [2], the Kd stood at 17.7 nM, the koff amounted to 0.0013 s⁻¹ and the kon is 75000 M⁻¹ s⁻¹.

B13: G5(4B01) scFv (scFv, V domains shown)
VH: QVQLVQSGAEVKKPGSSVKVSCKASGGTFSSYAISWVRQAPGQGLEWMGGIIPIVGTANYAQKFQGRVTITADESTSTAYMELSSLRSEDTAVYYCARGGSYYYYGMDVWGQGTTVTVSS
VL: not shown
In the case of B13, in assay [3], the “fold selective binding to target pHLA” value was at least 3 fold.

B14: G7(1F08) scFv (scFv, V domains shown)
VH: EVQLLQSGGGLVQPGGSLRLSCAASGFTFSSSWMHWVRQAPGKGLEWVSFISTSSGYIYYADSVKGRFTISRDNSKNTLYLQMNSLRAEDTAVYYCAKDLATVGEPYYYYGMDVWGQGTTVTVSS
VL: DIQMTQSPSSLSASVGDRVTITCQASQDISNYLNWYQQKPGKAPKLLIYSASNLRSGVPSRFSGSGSGTDFTLTISSLQPEDFATYYCQQGNTFPLTFGQGTKVEIK
Consider B14, for which, in assay [4], the binding result was “binds”.

B15: G7(1C06) scFv (scFv, V domains shown)
VH: QVQLVQSGAEVKKPGASVKVSCKASGGTFSNYGISWVRQAPGQGLEWMGIINPGGSTSYAQKFQGRVTMTRDTSTSTVYMELSSLRSEDTAVYYCARDGYDFWSGYTSDDYWGQGTLVTVSS
VL: EIVMTQSPATLSVSPGERATLSCRASQSVSSSNLAWYQQKPGQAPRLLIYGASTRATGIPARFSGSGSGTEFTLTISSLQSEDFAVYYCHHYGRSHTFGQGTKVEIK
Regarding B15, in assay [4], the binding result was “binds”.

B16: G10(4E07) Fab (Fab, V domains shown)
VH: QVQLVQSGAEVKKPGSSVKVSCKASGYTFTGYYMHWVRQAPGQGLEWMGRISPSDGSTTYAPKFQGRVTITADESTSTAYMELSSLRSEDTAVYYCARDMGDAFDIWGQGTTVTVSS
VL: not shown
notes: Fab
For the molecule B16, in assay [7], the Kd turned out to be 428 nM, the koff was determined as 0.111 s⁻¹ and the kon is 477000 M⁻¹ s⁻¹.

B17: G7(1B04) scFv (scFv, V domains shown)
VH: QVQLVQSGAEVKKPGASVKVSCKASGYTFSNYYIHWVRQAPGQGLEWMGWLNPNSGNTGYAQRFQGRVTMTRDTSTSTVYMELSSLRSEDTAVYYCARDLMTTVVTPGDYGMDVWGQGTTVTVSS
VL: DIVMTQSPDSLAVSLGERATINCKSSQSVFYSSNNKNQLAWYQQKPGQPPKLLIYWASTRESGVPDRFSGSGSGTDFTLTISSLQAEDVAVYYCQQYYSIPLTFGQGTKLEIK
For B17, the binding result in assay [4] is given as “binds”.

(Values after patent US20240059797A1 (GRITSTONE BIO, published 2024).)
